B1: WNb 15 (VHH)
VHH: QVQLQESGGGLVQPGGSLRLSCAASGFTFSSYLMGWFRQVPGKGLEWVSGIYSDGGTYYADSVKGRFTISRDNAKNTVYLQMNSLKPEDTAVYYCATDRMEGSSWPERDFGSWGQGTQVTVSS
B2: WNb 7 (VHH)
VHH: B1 VHH with S25P, L33A, G56S, T97K, M100L
B3: WNb 2 (VHH)
VHH: QVQLQESGGGLVQPGGSLRLSCAVSGFTLDYYAIGWFRQAPGKEREGVSCISSSGGNTKYADSVKGRFTASRDNAKNTFYLQMNSLKPEDTAVYYCAAIAATYYSGSYYFQCPHDGMDYWGKGTQVTVSS
notes: source: expressed and purified
B4: WNb 36 (VHH)
VHH: B3 VHH with S53N, A70T, R72V, K76Q, F79V, Q82L, K87E, S107T, F110Y, D115Y
B5: WNb 21 (VHH)
VHH: QVQLQESGGGLVQAGGSLTLTCAASERTFGRYVLAWFRQAPGKERELVARISRSTGSTFHADFVLGRFTISRDNAKNTVYLTMNNLKPEDTAVYYCAADKDGGLEYDYWGQGTQVTVSS
notes: as for B3
B6: WNb 23 (VHH)
VHH: QVQLQESGGGLVQPGGSLRLSCAASGFTFKDYAMAWARQVPGKGLEWVSGIYSDGNTYYADSVKGRFTISRDNAKNTVYLRMNSLKPEDTAVYYCATERHPQGAADFGSWGQGTQVTVSS
notes: as for B3
B7: WNb 19 (VHH)
VHH: QVQLQESGGGLVQPGGSLRLSCAASGSMFSINVMGWYRQASGKQRELVAGITRDGATNYSDSVKGRFTISGDNAKNTVYLQMNSLKPEDTAVYYCNTNVDSVWGSRIDYFGQGTQVTVSS
B8: WNb 53 (VHH)
VHH: B1 VHH with F37A, S49A, G56S, T68I, T97K, G102D, S104T
B9: WNb 50 (VHH)
VHH: B1 VHH with L33A, G56S, T97A, E101A, S104R

Substitutions are numbered along the chain they refer to.

Consider nine molecules from paper PMC8126837 (Proceedings of the National Academy of Sciences of the …, 2021).

For orientation: Kd means the free concentration of one partner at which half of the binding sites on the other are occupied at equilibrium, for simple one-to-one binding. A low value points to tighter binding.

One assay concerns the target T1, SARS-CoV-2 receptor-binding domain (RBD), wild type (SARS-CoV-2, UniProt P0DTC2, DyLight 488 (NHS ester, about 1.9 dye/protein) in the FRET assay only). Briefly: BLI. The note with it: both partners purified.
On to B1, for which the Kd is less than 0.5 nM.

In turn, B2 showed a dissociation constant (Kd) of less than 0.5 nM.

Regarding B3, the Kd is less than 0.5 nM. B4 registered a Kd of less than 0.5 nM.

The next assay has as its target T2, SARS-CoV receptor-binding domain (RBD) (SARS-CoV, UniProt P59594).
T2 construct: source: recombinant, purified
Briefly: ELISA. As to conditions: both partners purified.
For the molecule B5, the binding result is “binds”. For the molecule B6, the binding result was “binds”.

In the next assay the target is T1, SARS-CoV-2 receptor-binding domain …. Briefly: cell-based or functional assay.
Conditions: not given
On to B7, for which the other is not above 80 nM.

In the case of B8, the other was not above 80 nM.

B9 returned an other not above 80 nM.
